# Experimental data as given in publication PMC7705965 (Journal of Medicinal Chemistry, 2020).
# Primed or numbered codes have the meaning given here. Where no end group is shown, it is not given here. [ ]: non-standard residue; d: D form. TAMRA = 5(6)-carboxytetramethylrhodamine; PEG6′ = [PEG]6, polyethylene glycol
# B1: peptide 1 (Ac-HAKTYMWDGWYMPTSH-NH2) (peptide)
# peptide: Ac-HAKTYMWDGWYMPTSH-NH2
# B2: peptide 12 ([PEG]6-YMWDGWYM-NH2) (peptide)
# peptide: [PEG6′]YMWDGWYM-NH2
# B3: peptide 9 (TAMRA-HAKTYMWDGWYMPTSH-NH2) (peptide)
# peptide: {TAMRA}-HAKTYMWDGWYMPTSH-NH2
# Columns and labels:
# α-cobratoxin [1] = target: T1, α-cobratoxin (Naja kaouthia, UniProt P01391 1-71); test: fluorescence polarisation; settings: both partners purified
# α-cobratoxin [2] = target: T1, α-cobratoxin; test: fluorescence polarisation; settings: both partners purified; remark: listed apart in the source
# T1 sequence (P01391 whole entry): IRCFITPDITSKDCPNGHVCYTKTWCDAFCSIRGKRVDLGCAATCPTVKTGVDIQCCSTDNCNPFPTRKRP
Binder,IC50 (α-cobratoxin [1]) [µM],Ki (α-cobratoxin [2]) [µM],Kd (α-cobratoxin [2]) [µM]
B1,29,2,–
B2,–,26,–
B3,–,–,52
